Experimental data taken from patent US20230192789A1, “STRUCTURALLY-STABILIZED AND HDMX-SELECTIVE P53 PEPTIDES AND USES THEREOF” (Dana-Farber Cancer Institute, Inc., priority 2020, published 2023).
Bridges are numbered along the chain shown (N, C = ends). Where no end group is shown, it is not given here. [ ]: non-standard residue; d: D form. The star is where a group is joined. Biotin = O=C1N[C@H]2[C@H](CS[C@H]2CCCCC(=O)*)N1; R8 = C=CCCCCCC[C@@](C)(N)C(=O)O; Cba = N[C@@H](CC1CCC1)C(=O)O; S5 = C=CCCC[C@](C)(N)C(=O)O

Target: T1, recombinant HDMX (amino acids 1-490 of SEQ ID NO:104) (Homo sapiens, UniProt O15151)
T1 construct: thioredoxin (N, cleaved yes); S tag (N, cleaved yes); hexahistidine (N, cleaved yes); made in house; host or cells: E. coli (inferred: pET32-LIC vector, handled as described for HDM2 in BL21(DE3))
T1 sequence (O15151 1-490): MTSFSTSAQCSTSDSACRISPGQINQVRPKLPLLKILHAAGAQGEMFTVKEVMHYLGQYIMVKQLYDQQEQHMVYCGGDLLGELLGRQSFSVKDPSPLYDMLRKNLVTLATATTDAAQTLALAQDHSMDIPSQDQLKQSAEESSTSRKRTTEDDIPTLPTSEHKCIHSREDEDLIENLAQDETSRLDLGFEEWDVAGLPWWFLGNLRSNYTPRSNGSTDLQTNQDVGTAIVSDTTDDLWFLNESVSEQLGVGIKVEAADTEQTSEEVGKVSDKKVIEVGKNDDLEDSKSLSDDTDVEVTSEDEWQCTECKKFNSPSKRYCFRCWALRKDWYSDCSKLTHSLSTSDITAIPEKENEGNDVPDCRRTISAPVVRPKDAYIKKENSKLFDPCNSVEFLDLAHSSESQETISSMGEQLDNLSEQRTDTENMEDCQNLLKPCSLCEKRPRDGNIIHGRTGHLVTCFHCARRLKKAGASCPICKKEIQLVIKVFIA
Test: Competitive streptavidin pull-down of biotinylated peptides with 1:1 recombinant HDM2/HDMX mixture, HDMX western
Type: binding
Conditions: biotinylated stapled peptide, 1:1 mixture of recombinant HDM2 and HDMX

Row | Substance | HDMX versus HDM2 binding selectivity | also measured
1 | ATSP-7041 B26C (Biotin-LTF[R8]EYWAQC[S5]SAA-NH2; staple 4-11; SMILES CC(C)C[C@H](NC(=O)CCCC[C@@H]1SC[C@@H]2NC(=O)N[C@@H]21)C(=O)N[C@H](C(=O)N[C@@H](Cc1ccccc1)C(=O)N[C@]1(C)CCCCCCC=CCCC[C@@](C)(C(=O)N[C@@H](CO)C(=O)N[C@@H](C)C(=O)N[C@@H](C)C(N)=O)NC(=O)[C@H](CS)NC(=O)[C@H](CCC(N)=O)NC(=O)[C@H](C)NC(=O)[C@H](Cc2c[nH]c3ccccc23)NC(=O)[C@H](Cc2ccc(O)cc2)NC(=O)[C@H](CCC(=O)O)NC1=O)[C@@H](C)O) | HDMX selectivity over HDM2 | –
2 | ATSP-7041 B26D (Biotin-LTF[R8]EYWAQD[S5]SAA-NH2; staple 4-11; SMILES CC(C)C[C@H](NC(=O)CCCC[C@@H]1SC[C@@H]2NC(=O)N[C@@H]21)C(=O)N[C@H](C(=O)N[C@@H](Cc1ccccc1)C(=O)N[C@]1(C)CCCCCCC=CCCC[C@@](C)(C(=O)N[C@@H](CO)C(=O)N[C@@H](C)C(=O)N[C@@H](C)C(N)=O)NC(=O)[C@H](CC(=O)O)NC(=O)[C@H](CCC(N)=O)NC(=O)[C@H](C)NC(=O)[C@H](Cc2c[nH]c3ccccc23)NC(=O)[C@H](Cc2ccc(O)cc2)NC(=O)[C@H](CCC(=O)O)NC1=O)[C@@H](C)O) | HDMX selectivity over HDM2 | –
3 | ATSP-7041 B26G (Biotin-LTF[R8]EYWAQG[S5]SAA-NH2; staple 4-11; SMILES CC(C)C[C@H](NC(=O)CCCC[C@@H]1SC[C@@H]2NC(=O)N[C@@H]21)C(=O)N[C@H](C(=O)N[C@@H](Cc1ccccc1)C(=O)N[C@]1(C)CCCCCCC=CCCC[C@@](C)(C(=O)N[C@@H](CO)C(=O)N[C@@H](C)C(=O)N[C@@H](C)C(N)=O)NC(=O)CNC(=O)[C@H](CCC(N)=O)NC(=O)[C@H](C)NC(=O)[C@H](Cc2c[nH]c3ccccc23)NC(=O)[C@H](Cc2ccc(O)cc2)NC(=O)[C@H](CCC(=O)O)NC1=O)[C@@H](C)O) | HDMX selectivity over HDM2 | HDMX versus HDM2 binding selectivity (listed as SEQ ID NO:61): selectivity to HDMX
4 | ATSP-7041 B26K (Biotin-LTF[R8]EYWAQK[S5]SAA-NH2; staple 4-11; SMILES CC(C)C[C@H](NC(=O)CCCC[C@@H]1SC[C@@H]2NC(=O)N[C@@H]21)C(=O)N[C@H](C(=O)N[C@@H](Cc1ccccc1)C(=O)N[C@]1(C)CCCCCCC=CCCC[C@@](C)(C(=O)N[C@@H](CO)C(=O)N[C@@H](C)C(=O)N[C@@H](C)C(N)=O)NC(=O)[C@H](CCCCN)NC(=O)[C@H](CCC(N)=O)NC(=O)[C@H](C)NC(=O)[C@H](Cc2c[nH]c3ccccc23)NC(=O)[C@H](Cc2ccc(O)cc2)NC(=O)[C@H](CCC(=O)O)NC1=O)[C@@H](C)O) | HDMX selectivity over HDM2 | HDMX versus HDM2 binding selectivity (listed as SEQ ID NO:64): selectivity to HDMX
5 | ATSP-7041 B26N (Biotin-LTF[R8]EYWAQN[S5]SAA-NH2; staple 4-11; SMILES CC(C)C[C@H](NC(=O)CCCC[C@@H]1SC[C@@H]2NC(=O)N[C@@H]21)C(=O)N[C@H](C(=O)N[C@@H](Cc1ccccc1)C(=O)N[C@]1(C)CCCCCCC=CCCC[C@@](C)(C(=O)N[C@@H](CO)C(=O)N[C@@H](C)C(=O)N[C@@H](C)C(N)=O)NC(=O)[C@H](CC(N)=O)NC(=O)[C@H](CCC(N)=O)NC(=O)[C@H](C)NC(=O)[C@H](Cc2c[nH]c3ccccc23)NC(=O)[C@H](Cc2ccc(O)cc2)NC(=O)[C@H](CCC(=O)O)NC1=O)[C@@H](C)O) | HDMX selectivity over HDM2 | –
6 | ATSP-7041 B26P (Biotin-LTF[R8]EYWAQP[S5]SAA-NH2; staple 4-11; SMILES CC(C)C[C@H](NC(=O)CCCC[C@@H]1SC[C@@H]2NC(=O)N[C@@H]21)C(=O)N[C@H](C(=O)N[C@@H](Cc1ccccc1)C(=O)N[C@]1(C)CCCCCCC=CCCC[C@@](C)(C(=O)N[C@@H](CO)C(=O)N[C@@H](C)C(=O)N[C@@H](C)C(N)=O)NC(=O)[C@@H]2CCCN2C(=O)[C@H](CCC(N)=O)NC(=O)[C@H](C)NC(=O)[C@H](Cc2c[nH]c3ccccc23)NC(=O)[C@H](Cc2ccc(O)cc2)NC(=O)[C@H](CCC(=O)O)NC1=O)[C@@H](C)O) | HDMX selectivity over HDM2 | –
7 | ATSP-7041 B26Q (Biotin-LTF[R8]EYWAQQ[S5]SAA-NH2; staple 4-11; SMILES CC(C)C[C@H](NC(=O)CCCC[C@@H]1SC[C@@H]2NC(=O)N[C@@H]21)C(=O)N[C@H](C(=O)N[C@@H](Cc1ccccc1)C(=O)N[C@]1(C)CCCCCCC=CCCC[C@@](C)(C(=O)N[C@@H](CO)C(=O)N[C@@H](C)C(=O)N[C@@H](C)C(N)=O)NC(=O)[C@H](CCC(N)=O)NC(=O)[C@H](CCC(N)=O)NC(=O)[C@H](C)NC(=O)[C@H](Cc2c[nH]c3ccccc23)NC(=O)[C@H](Cc2ccc(O)cc2)NC(=O)[C@H](CCC(=O)O)NC1=O)[C@@H](C)O) | HDMX selectivity over HDM2 | –
8 | ATSP-7041 B26S (Biotin-LTF[R8]EYWAQS[S5]SAA-NH2; staple 4-11; SMILES CC(C)C[C@H](NC(=O)CCCC[C@@H]1SC[C@@H]2NC(=O)N[C@@H]21)C(=O)N[C@H](C(=O)N[C@@H](Cc1ccccc1)C(=O)N[C@]1(C)CCCCCCC=CCCC[C@@](C)(C(=O)N[C@@H](CO)C(=O)N[C@@H](C)C(=O)N[C@@H](C)C(N)=O)NC(=O)[C@H](CO)NC(=O)[C@H](CCC(N)=O)NC(=O)[C@H](C)NC(=O)[C@H](Cc2c[nH]c3ccccc23)NC(=O)[C@H](Cc2ccc(O)cc2)NC(=O)[C@H](CCC(=O)O)NC1=O)[C@@H](C)O) | HDMX selectivity over HDM2 | –
9 | ATSP-7041 B26T (Biotin-LTF[R8]EYWAQT[S5]SAA-NH2; staple 4-11; SMILES CC(C)C[C@H](NC(=O)CCCC[C@@H]1SC[C@@H]2NC(=O)N[C@@H]21)C(=O)N[C@H](C(=O)N[C@@H](Cc1ccccc1)C(=O)N[C@]1(C)CCCCCCC=CCCC[C@@](C)(C(=O)N[C@@H](CO)C(=O)N[C@@H](C)C(=O)N[C@@H](C)C(N)=O)NC(=O)[C@H]([C@@H](C)O)NC(=O)[C@H](CCC(N)=O)NC(=O)[C@H](C)NC(=O)[C@H](Cc2c[nH]c3ccccc23)NC(=O)[C@H](Cc2ccc(O)cc2)NC(=O)[C@H](CCC(=O)O)NC1=O)[C@@H](C)O) | HDMX selectivity over HDM2 | –
10 | ATSP-7041 B26V (Biotin-LTF[R8]EYWAQV[S5]SAA-NH2; staple 4-11; SMILES CC(C)C[C@H](NC(=O)CCCC[C@@H]1SC[C@@H]2NC(=O)N[C@@H]21)C(=O)N[C@H](C(=O)N[C@@H](Cc1ccccc1)C(=O)N[C@]1(C)CCCCCCC=CCCC[C@@](C)(C(=O)N[C@@H](CO)C(=O)N[C@@H](C)C(=O)N[C@@H](C)C(N)=O)NC(=O)[C@H](C(C)C)NC(=O)[C@H](CCC(N)=O)NC(=O)[C@H](C)NC(=O)[C@H](Cc2c[nH]c3ccccc23)NC(=O)[C@H](Cc2ccc(O)cc2)NC(=O)[C@H](CCC(=O)O)NC1=O)[C@@H](C)O) | HDMX selectivity over HDM2 | –
11 | ATSP-7041 B26W (Biotin-LTF[R8]EYWAQW[S5]SAA-NH2; staple 4-11; SMILES CC(C)C[C@H](NC(=O)CCCC[C@@H]1SC[C@@H]2NC(=O)N[C@@H]21)C(=O)N[C@H](C(=O)N[C@@H](Cc1ccccc1)C(=O)N[C@]1(C)CCCCCCC=CCCC[C@@](C)(C(=O)N[C@@H](CO)C(=O)N[C@@H](C)C(=O)N[C@@H](C)C(N)=O)NC(=O)[C@H](Cc2c[nH]c3ccccc23)NC(=O)[C@H](CCC(N)=O)NC(=O)[C@H](C)NC(=O)[C@H](Cc2c[nH]c3ccccc23)NC(=O)[C@H](Cc2ccc(O)cc2)NC(=O)[C@H](CCC(=O)O)NC1=O)[C@@H](C)O) | HDMX selectivity over HDM2 | –
12 | ATSP-7041 B26Y (Biotin-LTF[R8]EYWAQY[S5]SAA-NH2; staple 4-11; SMILES CC(C)C[C@H](NC(=O)CCCC[C@@H]1SC[C@@H]2NC(=O)N[C@@H]21)C(=O)N[C@H](C(=O)N[C@@H](Cc1ccccc1)C(=O)N[C@]1(C)CCCCCCC=CCCC[C@@](C)(C(=O)N[C@@H](CO)C(=O)N[C@@H](C)C(=O)N[C@@H](C)C(N)=O)NC(=O)[C@H](Cc2ccc(O)cc2)NC(=O)[C@H](CCC(N)=O)NC(=O)[C@H](C)NC(=O)[C@H](Cc2c[nH]c3ccccc23)NC(=O)[C@H](Cc2ccc(O)cc2)NC(=O)[C@H](CCC(=O)O)NC1=O)[C@@H](C)O) | HDMX selectivity over HDM2 | –
13 | LTF8EYWAQBXAAA (Biotin-LTF[R8]EYWAQ[Cba][S5]AAA-NH2; staple 4-11) [ATSP-7041 S28A] | restored dual HDM2/HDMX binding selectivity | HDMX versus HDM2 binding selectivity (listed as SEQ ID NO:79): dual-selectivity to HDMX and HDM2
14 | LTF8EYWAQBXSAA [ATSP-7041, reference compound] | dual-HDM2/HDMX targeting | –
15 | LTF8EYWEQBXEAA (LTF[R8]EYWEQ[Cba][S5]EAA-NH2; staple 4-11; not fully specified (N-terminus); printed as LTF8EYWEQBXEAA) [ATSP-7041 A24E/S28E] | restored dual HDM2/HDMX binding selectivity | HDMX versus HDM2 binding selectivity (listed as SEQ ID NO:81): dual-selectivity to HDMX and HDM2
